Test [1] addresses cynomolgus monkey PCSK9 (cynomolgus monkey). Nature of the test: KinExA solution equilibrium.
Test [2] has the same target. Briefly: BIAcore, antibody immobilised, pH 7.4.
In another test the target is 31H4, anti-PCSK9 huIgG4. Briefly: KinExA solution equilibrium, % free 31H4.1 against [cPCSK9]; curve with diamonds; 10 pM or 100 pM 31H4 series not labelled. In general terms: Kinetic exclusion samples the free partner from a solution-phase mixture.
Test [3] addresses human PCSK9 (proprotein convertase subtilisin kexin type 9) (human) (UniProt Q8NBP7). Nature of the test: BIAcore solution equilibrium, pH 5.5. (In general: Surface plasmon resonance follows binding to a sensor surface in real time, without labels.)
For test [4] the target is unchanged. Nature of the test: BIAcore solution equilibrium, pH 6.0.
Test [5] shares this target. Nature of the test: BIAcore solution equilibrium, pH 7.4.
The target in test [6] is cynomolgus monkey PCSK9 (cynomolgus monkey). Briefly: BIAcore solution equilibrium, column To Cyno PCSK9.

The source of these data is patent publication US20130072665A1.

Sequence of 31H4, anti-PCSK9 huIgG4 (heavy, as listed by the source, chain 1 of 2): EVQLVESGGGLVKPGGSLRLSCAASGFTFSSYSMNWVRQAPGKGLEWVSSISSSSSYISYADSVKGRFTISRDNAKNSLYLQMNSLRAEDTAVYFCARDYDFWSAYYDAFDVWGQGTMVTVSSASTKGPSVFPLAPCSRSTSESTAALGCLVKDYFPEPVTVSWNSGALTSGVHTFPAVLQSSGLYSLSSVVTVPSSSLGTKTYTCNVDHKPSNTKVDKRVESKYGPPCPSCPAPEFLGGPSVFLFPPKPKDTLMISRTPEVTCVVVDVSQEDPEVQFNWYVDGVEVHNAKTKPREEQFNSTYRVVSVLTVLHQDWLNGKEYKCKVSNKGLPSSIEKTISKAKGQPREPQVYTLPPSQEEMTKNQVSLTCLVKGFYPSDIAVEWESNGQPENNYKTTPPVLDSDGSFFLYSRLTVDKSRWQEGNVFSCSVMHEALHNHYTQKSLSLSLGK
Sequence of 31H4, anti-PCSK9 huIgG4 (light, as listed by the source, chain 2 of 2): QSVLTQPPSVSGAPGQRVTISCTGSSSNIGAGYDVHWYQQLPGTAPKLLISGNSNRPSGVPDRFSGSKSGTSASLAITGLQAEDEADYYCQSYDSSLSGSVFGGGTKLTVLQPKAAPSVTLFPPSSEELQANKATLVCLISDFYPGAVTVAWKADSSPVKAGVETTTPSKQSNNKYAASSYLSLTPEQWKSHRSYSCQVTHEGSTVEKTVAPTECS

One may read the Kd as the concentration at which binding is half-saturated. For 31H4, anti-PCSK9 huIgG4 (antibody), the Kd was determined as 2 pM in test [1] and 190 pM in test [2].

Take “cynomolgus monkey PCSK9 (from UniProt A0A7N9D9N8 150-747) (enzyme)”: the IC50 (read off the curve) in the test with 31H4, anti-PCSK9 huIgG4 is 10 pM.

Regarding AMG145 (antibody), the Kd is 28 pM in test [3], 6 pM in test [4], 19 pM in test [5] and 8 pM in test [6].
